The values below come from patent US7038022, “Multimeric forms of members of the steroid/thyroid superfamily of receptors” (The Salk Institute for Biological Studies).

Data set [1] deals with T1, COUP-TF/RXRalpha heterodimer (UniProt P10589;P19793 P10589:1-423,P19793:1-462). The experiment in a line: EMSA; supershift data similar to DR-1. Conditions: tags: RXR as GST fusion; label: 32P. Background: Mobility shift assays separate free from complexed probe on a gel.
The target of data set [2] is T2, RAR/RXR heterodimer (UniProt P10276;P19793 P10276:1-462,P19793:1-462). The experiment in a line: EMSA; high affinity; also competes for CRBPII-RXRE binding. Conditions: label: 32P.
Data set [3] concerns the molecule itself. The experiment in a line: gel mobility shift, 32P-labeled DR-1 probe.
For data set [4], the target named is T3, hRARα expressed in cells from RS-hRARα (human, UniProt P10276 1-462).
T3 construct: Intracellular expression; whole cell extracts in the Cos cell gel shifts; also called RS-hRARa; RS-RARα
T3 sequence (looked up): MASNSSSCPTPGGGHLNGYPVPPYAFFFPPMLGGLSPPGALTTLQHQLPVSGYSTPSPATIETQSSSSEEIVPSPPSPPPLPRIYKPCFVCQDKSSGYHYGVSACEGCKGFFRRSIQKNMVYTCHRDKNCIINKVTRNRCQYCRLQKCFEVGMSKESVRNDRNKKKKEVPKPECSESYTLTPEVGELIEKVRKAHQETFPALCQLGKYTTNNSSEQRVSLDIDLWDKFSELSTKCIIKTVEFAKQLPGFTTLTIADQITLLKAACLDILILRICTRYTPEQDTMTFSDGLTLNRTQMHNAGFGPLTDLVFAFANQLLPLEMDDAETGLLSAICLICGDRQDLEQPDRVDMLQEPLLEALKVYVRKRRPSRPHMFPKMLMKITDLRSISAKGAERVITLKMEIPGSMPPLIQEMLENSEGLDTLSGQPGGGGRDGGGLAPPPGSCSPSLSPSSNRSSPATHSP
The experiment in a line: gel mobility shift, βRARE probe, whole-cell extracts of transfected Cos cells. The method, then: DNA-protein complexes were resolved on a 4% polyacrylamide gel in 0.5×TBE (1×TBE=90 mM Tris, 90 mM boric acid, 2 mM EDTA).

The target of data set [5] is T1, COUP-TF/RXRalpha heterodimer. The experiment in a line: EMSA; heterodimer favored over homodimers; supershifted by RXR antiserum. Conditions: tags: RXR as GST fusion; label: 32P. The method, then:
(§1) Bacterial-expressed COUP-TF and RXR-glutathione-S-transferase fusion protein (RXR-GST) were mixed and the resulting complexes analyzed by gel mobility shift assays using ^32P-labeled DR-1 oligonucleotide (i e., SEQ ID No. 21) as probe. The larger RXR fusion protein was used in order to maximize the migratory differences observed between the COUP-TF and RXR complexes.
(§2) Gel mobility shift assays were performed using ^32P-labeled DR-1 oligonucleotide (SEQ ID No. 21) in the presence of partially-purified COUP-TF (500 ng) and increasing amounts of partially-purified RXR (1×–50 ng) as indicated in FIG. 1. Either 0.3 μl or 1 μl of RXR-specific antiserum was included in the assays (shown in lanes 11 and 12, respectively). The positions of the RXR-specific and COUP-TF-specific complexes are indicated in FIG. 1 by a plain line ("–"). […] The free probe was run off the gel and is not shown.

In data set [6] the target is T4, COUP-TF (EAR-3) (UniProt P10589 P10589:1-423).
T4 sequence: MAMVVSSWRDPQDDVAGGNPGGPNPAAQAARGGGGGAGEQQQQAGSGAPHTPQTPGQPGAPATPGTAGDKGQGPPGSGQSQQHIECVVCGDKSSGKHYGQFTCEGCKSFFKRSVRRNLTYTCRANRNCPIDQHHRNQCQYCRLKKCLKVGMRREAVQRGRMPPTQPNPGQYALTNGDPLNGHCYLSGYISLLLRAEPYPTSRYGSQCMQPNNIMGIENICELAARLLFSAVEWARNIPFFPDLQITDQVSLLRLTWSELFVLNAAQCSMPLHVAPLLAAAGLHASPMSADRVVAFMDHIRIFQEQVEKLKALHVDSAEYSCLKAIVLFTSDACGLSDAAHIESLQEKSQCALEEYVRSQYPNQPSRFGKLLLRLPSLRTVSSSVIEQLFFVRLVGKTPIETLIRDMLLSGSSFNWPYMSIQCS
The experiment in a line: EMSA; COUP-TF-specific complex, 500 ng protein. Conditions: tags: none, pET-8C bacterial expression, partially purified; label: 32P. On the procedure:
as §1, §2

The target of data set [7] is T2, RAR/RXR heterodimer. Briefly: EMSA; high affinity; 10-fold excess of unlabeled site competes. Conditions: label: 32P.

B1: COUP-TF RE (ovalbumin) (dsDNA)
DNA 1: AGCTTGGTGTCAAAGGTCAAACTTAGCT
DNA 2: AGCTAAGTTTGACCTTTGACACCAAGCT
Regarding B1, in data set [1], the binding result is recorded as “binds”.

B2: βRARE (dsDNA)
DNA 1: AGCTTAAGGGTTCACCGAAAGTTCACTCGCATAGCTGCT
DNA 2: AGCAGCTATGCGAGTGAACTTTCGGTGAACCCTTAAGCT
For the molecule B2, the binding result in data set [2] is “binds”.

B3: chicken ovalbumin upstream promotor transcription factor (COUP-TF; EAR-3) (receptor, UniProt P10589 1-423, looked up)
chain: T4 sequence
notes: mature; Partially purified bacterial protein in the gel shifts; also called bacterially-expressed COUP-TF; RS-COUP-TF product
As for B3, the binding result in data set [3] was “binds”.

B4: hRXRα expressed in cells from RS-hRXRα (receptor, human, UniProt P19793 1-462, looked up)
chain: MDTKHFLPLDFSTQVNSSLTSPTGRGSMAAPSLHPSLGPGIGSPGQLHSPISTLSSPINGMGPPFSVISSPMGPHSMSVPTTPTLGFSTGSPQLSSPMNPVSSSEDIKPPLGLNGVLKVPAHPSGNMASFTKHICAICGDRSSGKHYGVYSCEGCKGFFKRTVRKDLTYTCRDNKDCLIDKRQRNRCQYCRYQKCLAMGMKREAVQEERQRGKDRNENEVESTSSANEDMPVERILEAELAVEPKTETYVEANMGLNPSSPNDPVTNICQAADKQLFTLVEWAKRIPHFSELPLDDQVILLRAGWNELLIASFSHRSIAVKDGILLATGLHVHRNSAHSAGVGAIFDRVLTELVSKMRDMQMDKTELGCLRAIVLFNPDSKGLSNPAEVEALREKVYASLEAYCKHKYPEQPGRFAKLLLRLPALRSIGLKCLEHLFFFKLIGDTPIDTFLMEMLEAPHQMT
notes: Intracellular expression; whole cell extracts in the Cos cell gel shifts; also called RS-hRXRa
For the molecule B4, the binding result in data set [4] is “binds”.

B5: RXR-glutathione-S-transferase fusion protein (hRXRα expressed in bacteria as a fusion with glutathione-S-transferase, pGEX-2T) (receptor, human, UniProt P19793 1-462, looked up)
chain: B4 chain
notes: GST placed N-terminal as in pGEX-2T vectors; also called RXR-GST; GST-RXR; not shown: glutathione-S-transferase encoded by the pGEX-2T expression vector
B5: the binding result in data set [3] is “binds”.

B6: DR-1 (dsDNA)
DNA 1: AGCTTCAGGTCAGAGGTCAGAGAGCT
DNA 2: AGCTCTCTGACCTCTGACCTGAAGCT
Turning to B6, the binding result in data set [5] and in data set [6] was “binds” in each case.

B7: CRBPII-RXRE (dsDNA)
DNA 1: AGCTGTCACAGGTCACAGGTCACAGGTCACAGTTCAAGCT
DNA 2: AGCTTGAACTGTGACCTGTGACCTGTGACCTGTGACAGCT
Consider B7, for which the binding result in data set [7] is recorded as “binds”.
